We go through one protein from publication doi:10.1101/2022.06.29.498105 (bioRxiv, 2022).

The series deals with the molecule itself. The series can be described thus: crystal structure.

B1: TRIM21 RING domain (domain or fragment)
chain: GSHMASAARLTMMWEEVTCPICLDPFVEPVSIECGHSFCQECISQVGKGGGSVCPVCRQRFLLKNLRPNRQLANMVNNLKEISQEARE
As for B1, the “stoichiometry N” value was found to be 2.
